“And” between values parts separate entries of the source, which are not always exact repeats. Equal values may be shown once.
B1: Ribose import binding protein RbsB, P02925 (parent)
chain: MNMKKLATLVSAVALSATVSANAMAKDTIALVVSTLNNPFFVSLKDGAQKEADKLGYNLVVLDSQNNPAKELANVQDLTVRGTKILLINPTDSDAVGNAVKMANQANIPVITLDRQATKGEVVSHIASDNVLGGKIAGDYIAKKAGEGAKVIELQGIAGTSAARERGEGFQQAVAAHKFNVLASQPADFDRIKGLNVMQNLLTAHPDVQAVFAQNDEMALGALRALQTAGKSDVMVVGFDGTPDGEKAVNDGKLAATIAQLPDQIGAKGVETADKVLKGEKVQAKYPVDLKLVVKQ

Variants of: B1
Details: Escherichia coli (strain K12); pH 7; Thermal; CD; Phosphate 5 mM; structure 2DRI; whole UniProt chain shown

Row | Variant | Tm | change of melting temperature, mutant - wild type (higher = more stable)
1 | MNMKKLATLVSAVALSATVSANAMAKDTIALVVATLNNPFFVSLKDGAQKEADKLGYNLVVLDSQNNPAKELANVQDLTVRGTKILLINPTDSDAVGNAVKMANQANIPVITLDRQATKGEVVSHIAADNVLGGKIAGDYIAKKAGEGAKVIELQGAAGTSAARERGEGFQQAVAAHKFNVLASQPADFDRIKGLNVMQNLLTAHPDVQAVFAQNDEMALGALRALQTAGKSDVMVVGFDGTPDGEKAVNDGKLAATIAQLPDQIGAKGVETADKVLKGEKVQAKYPVDLKLVVKQ [S34A I157A S128A] | 53.4 °C and 53.7 °C | 
2 | MNMKKLATLVSAVALSATVSANAMAKDTIALVVATLNNPFFVSLKDGAQKEADKLGYNLVVLDSQNNPAKELANVQDLTVRGTKILLINPTDSDAVGNAVKMANQANIPVITLDRQATKGEVVSHIASDNVLGGKIAGDYIAKKAGEGAKVIELQGAAGTSAARERGEGFQQAVAAHKFNVLASQPADFDRIKGLNVMQNLLTAHPDVQAVFAQNDEMALGALRALQTAGKSDVMVVGFDGTPDGEKAVNDGKLAATIAQLPDQIGAKGVETADKVLKGEKVQAKYPVDLKLVVKQ [S34A I157A] |  | -0.7 °C and 2.4 °C
3 | MNMKKLATLVSAVALSATVSANAMAKDTIALVVSTLNAPFFVSLKDGAQKEADKLGYNLVVLDSQNNPAKELANVQDLTVRGTKILLINPTDSDAVGNAVKMANQANIPVITLDRQATKGEVVSHIASDNVLGGKIAGDYIAKKAGEGAKVIELQGIAGTSAARERGEGFQQAVAAHKFNVLASQPADFDRIKGLNVMQNLLTAHPDVQAVFAQNDEMALGALRALQTAGKSDVMVVGFDGTPDGEKAVNDGKLAATIAQLPDQIGAKGVETADKVLKGEKVQAKYPVDLKLVVKQ [N38A] | 58.2 °C and 60.1 °C | 0.7 °C and -3.6 °C
4 | MNMKKLATLVSAVALSATVSANAMAKDTIALVVSTLNNPFFVSLKDGAQKEADKLGYNLVVLDSQNNPAKELANVQDLTVRGTKILLINPTDSDAVGNAVKMANQANIPVITLDRQATKGEVVSHIASDNVLGGKIAGDYIAKKAGEGAKVIELQGIAGTSAARERGEGFQQAVAAHKFNVLASQPADFDRIKGLNVMQNLLTAHPDVQAVFAQNDEMALGALRALQTAGKSDVMVVGFDGTPDGEKAVNDGKLAATIAALPDQIGAKGVETADKVLKGEKVQAKYPVDLKLVVKQ [Q260A] | 58.2 °C and 58.9 °C | 
5 | MNMKKLATLVSAVALSATVSANAMAKDTIALVVSTLNNPFFVSLKDGAQKEADKLGYNLVVLDSQNNPAKELANVQDLTVRGTKILLINPTDSDAVGNAVKMANQANIPVITLDRQATKGEVVSHIASDNVLGGKIAGDYIAKKAGEGAKVIELQGIAGTSAARERGEGFQQAVAAHKFNVLASQPADFDRIKGLNVMQNLLTAHPDVQAVFAQNDEMALGALRALQTAGKSDVMVVGFAGTPDGEKAVNDGKLAATIAQLPDQIGAKGVETADKVLKGEKVQAKYPVDLKLVVKQ [D240A] | 51.2 °C and 51.3 °C | 
6 | MNMKKLATLVSAVALSATVSANAMAKDTIALVVATLNAPFFVSLKDGAQKEADKLGYNLVVLDSQNNPAKELANVQDLTVRGTKILLINPTDSDAVGNAVKMANQANIPVITLDRQATKGEVVSHIAADNVLGGKIAGDYIAKKAGEGAKVIELQGAAGTSAARERGEGFQQAVAAHKFNVLASQPADFDRIKGLNVMQNLLTAHPDVQAVFAQNDEMALGALRALQTAGKSDVMVVGFDGTPDGEKAVNDGKLAATIAALPDQIGAKGVETADKVLKGEKVQAKYPVDLKLVVKQ [S34A I157A S128A N38A Q260A] | 59 °C | -4.7 °C
7 | MNMKKLATLVSAVALSATVSANAMAKDTIALVVSTLNNPAFVSLKDGAQKEADKLGYNLVVLDSQNNPAKELANVQDLTVRGTKILLINPTDSDAVGNAVKMANQANIPVITLDRQATKGEVVSHIASDNVLGGKIAGDYIAKKAGEGAKVIELQGIAGTSAARERGEGFQQAVAAHKFNVLASQPADFDRIKGLNVMQNLLTAHPDVQAVFAQNDEMALGALRALQTAGKSDVMVVGFDGTPDGEKAVNDGKLAATIAQLPDQIGAKGVETADKVLKGEKVQAKYPVDLKLVVKQ [F40A] | 52.5 °C and 54.2 °C | -5 °C and -9.5 °C
8 | MNMKKLATLVSAVALSATVSANAMAKDTIALVVSTLNNPFFVSLKDGAQKEADKLGYNLVVLDSQNNPAKELANVQDLTVRGTKILLINPTDSDAVGNAVKMANQANIPVITLDRQATKGEVVSHIASDNVLGGKIAGDYIAKKAGEGAKVIELQGIAGTSAARERGEGFQQAVAAHKFNVLASQPADFDRIKGLNVMQNLLTAHPDVQAVFAQNDEMALGALRALQTAGKSDVMVVGADGTPDGEKAVNDGKLAATIAQLPDQIGAKGVETADKVLKGEKVQAKYPVDLKLVVKQ [F239A] | 48 °C and 46 °C | 
9 | MNMKKLATLVSAVALSATVSANAMAKDTIALVVSTLNNPFAVSLKDGAQKEADKLGYNLVVLDSQNNPAKELANVQDLTVRGTKILLINPTDSDAVGNAVKMANQANIPVITLDRQATKGEVVSHIASDNVLGGKIAGDYIAKKAGEGAKVIELQGIAGTSAARERGEGFQQAVAAHKFNVLASQPADFDRIKGLNVMQNLLTAHPDVQAVFAQNDEMALGALRALQTAGKSDVMVVGFDGTPDGEKAVNDGKLAATIAQLPDQIGAKGVETADKVLKGEKVQAKYPVDLKLVVKQ [F41A] | 58.9 °C and 57.4 °C | 
10 | MNMKKLATLVSAVALSATVSANAMAKDTIALVVSTLNNPFFVSLKDGAQKEADKLGYNLVVLDSQNNPAKELANVQDLTVRGTKILLINPTDSDAVGNAVKMANQANIPVITLARQATKGEVVSHIASDNVLGGKIAGDYIAKKAGEGAKVIELQGIAGTSAARERGEGFQQAVAAHKFNVLASQPADFDRIKGLNVMQNLLTAHPDVQAVFAQNDEMALGALRALQTAGKSDVMVVGFDGTPDGEKAVNDGKLAATIAQLPDQIGAKGVETADKVLKGEKVQAKYPVDLKLVVKQ [D114A] | 58.2 °C and 57.2 °C | 
11 | MNMKKLATLVSAVALSATVSANAMAKDTIALVVSTLNNPFFVSLKDGAQKEADKLGYNLVVLDSQNNPAKELANVQDLTVRGTKILLINPTDSDAVGNAVKMANQANIPVITLDRQATKGEVVSHIASDNVLGGKIAGDYIAKKAGEGAKVIELQGAAGTSAARERGEGFQQAVAAHKFNVLASQPADFDRIKGLNVMQNLLTAHPDVQAVFAQNDEMALGALRALQTAGKSDVMVVGFDGTPDGEKAVNDGKLAATIAQLPDQIGAKGVETADKVLKGEKVQAKYPVDLKLVVKQ [I157A] | 57.3 °C and 61.2 °C | -0.2 °C and -2.5 °C
12 | MNMKKLATLVSAVALSATVSANAMAKDTIALVVATLNAPFFVSLKDGAQKEADKLGYNLVVLDSQNNPAKELANVQDLTVRGTKILLINPTDSDAVGNAVKMANQANIPVITLDRQATKGEVVSHIAADNVLGGKIAGDYIAKKAGEGAKVIELQGAAGTSAARERGEGFQQAVAAHKFNVLASQPADFDRIKGLNVMQNLLTAHPDVQAVFAQNDEMALGALRALQTAGKSDVMVVGFDGTPDGEKAVNDGKLAATIAQLPDQIGAKGVETADKVLKGEKVQAKYPVDLKLVVKQ [S34A I157A S128A N38A] | 54.7 °C | -9 °C
13 | MNMKKLATLVSAVALSATVSANAMAKDTIALVVSTLNNPFFVSLKDGAQKEADKLGYNLVVLDSQNNPAKELANVQDLTVRGTKILLINPTDSDAVGNAVKMANQANIPVITLDRQATKGEVVSHIASDNVLGGKIAGDYIAKKAGEGAKVIELQGIAGTSAARERGEGFQQAVAAHKFNVLASQPADADRIKGLNVMQNLLTAHPDVQAVFAQNDEMALGALRALQTAGKSDVMVVGFDGTPDGEKAVNDGKLAATIAQLPDQIGAKGVETADKVLKGEKVQAKYPVDLKLVVKQ [F189A] | 51.7 °C and 53.3 °C | -5.8 °C and -10.4 °C
14 | MNMKKLATLVSAVALSATVSANAMAKDTIALVVSTLNNPFFVSLKDGAQKEADKLGYNLVVLDSQNNPAKELANVQDLTVRGTKILLINPTDSDAVGNAVKMANQANIPVITLDRQATKGEVVSHIASDNVLGGKIAGDYIAKKAGEGAKVIELQGIAGTSAARERGEGFQQAVAAHKFNVLASQPADFDRIKGLNVMQNLLTAHPDVQAVFAQADEMALGALRALQTAGKSDVMVVGFDGTPDGEKAVNDGKLAATIAQLPDQIGAKGVETADKVLKGEKVQAKYPVDLKLVVKQ [N215A] | 49.4 °C and 51.5 °C | -8.1 °C and -12.2 °C
15 | MNMKKLATLVSAVALSATVSANAMAKDTIALVVATLNNPFFVSLKDGAQKEADKLGYNLVVLDSQNNPAKELANVQDLTVRGTKILLINPTDSDAVGNAVKMANQANIPVITLDRQATKGEVVSHIASDNVLGGKIAGDYIAKKAGEGAKVIELQGIAGTSAARERGEGFQQAVAAHKFNVLASQPADFDRIKGLNVMQNLLTAHPDVQAVFAQNDEMALGALRALQTAGKSDVMVVGFDGTPDGEKAVNDGKLAATIAQLPDQIGAKGVETADKVLKGEKVQAKYPVDLKLVVKQ [S34A] |  | -1.5 °C and 0.1 °C
16 | MNMKKLATLVSAVALSATVSANAMAKDTIALVVSTLNNPFFVSLKDGAQKEADKLGYNLVVLDSQNNPAKELANVQDLTVRGTKILLIAPTDSDAVGNAVKMANQANIPVITLDRQATKGEVVSHIASDNVLGGKIAGDYIAKKAGEGAKVIELQGIAGTSAARERGEGFQQAVAAHKFNVLASQPADFDRIKGLNVMQNLLTAHPDVQAVFAQNDEMALGALRALQTAGKSDVMVVGFDGTPDGEKAVNDGKLAATIAQLPDQIGAKGVETADKVLKGEKVQAKYPVDLKLVVKQ [N89A] | 52.9 °C | -4.6 °C
17 | MNMKKLATLVSAVALSATVSANAMAKDTIALVVSTLNNPFFVSLKDGAQKEADKLGYNLVVLDSQNNPAKELANVQDLTVRGTKILLINPTDSDAVGNAVKMANQANIPVITLDRQATKGEVVSHIAADNVLGGKIAGDYIAKKAGEGAKVIELQGIAGTSAARERGEGFQQAVAAHKFNVLASQPADFDRIKGLNVMQNLLTAHPDVQAVFAQNDEMALGALRALQTAGKSDVMVVGFDGTPDGEKAVNDGKLAATIAQLPDQIGAKGVETADKVLKGEKVQAKYPVDLKLVVKQ [S128A] | 57.8 °C and 60.7 °C | 0.3 °C and -3 °C

Reference: FireProtDB (doi:10.1110/ps.062595707)
